We go through six substances from US20090215991A1.

extracellular region of human V158 FcγRIIIa with C-terminal 6xHis-tag and GST-tag (human), sequence (P08637 17-208 F176V): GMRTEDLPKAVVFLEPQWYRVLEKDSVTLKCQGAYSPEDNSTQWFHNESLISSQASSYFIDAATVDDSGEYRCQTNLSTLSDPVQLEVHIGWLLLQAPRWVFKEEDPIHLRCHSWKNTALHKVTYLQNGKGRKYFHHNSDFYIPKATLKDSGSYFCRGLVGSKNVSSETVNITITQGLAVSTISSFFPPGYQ

The target in the first assay is FcγRIIIa on human PBMCs expressing heterozygous V158/F158 FcγRIIIa (human) (UniProt P08637). The assay is described as follows: cell-based or functional assay.
FcγRIIIa on human PBMCs expressing heterozygous V158/F158 FcγRIIIa (human), sequence (P08637 17-254): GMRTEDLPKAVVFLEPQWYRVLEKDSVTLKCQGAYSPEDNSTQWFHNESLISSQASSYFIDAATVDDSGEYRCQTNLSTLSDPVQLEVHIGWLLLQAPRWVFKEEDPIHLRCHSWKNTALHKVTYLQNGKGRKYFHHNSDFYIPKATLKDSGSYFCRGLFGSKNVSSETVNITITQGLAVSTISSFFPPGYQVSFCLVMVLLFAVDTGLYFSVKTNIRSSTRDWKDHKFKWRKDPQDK
Turning to S239D/I332E alemtuzumab (antibody), the ADCC log(EC50), DoHH-2 target cells is 0.49 log(ng/ml).
Regarding V264I/I332E alemtuzumab (antibody), the ADCC log(EC50), DoHH-2 target cells was 0.6 log(ng/ml).

A further assay concerns the target extracellular region of human V158 FcγRIIIa with C-terminal 6xHis-tag and GST-tag (human) (UniProt P08637). The assay is described as follows: SPR.
S304T alemtuzumab (antibody) yielded a Fold WT of 12.8 fold.
E272R alemtuzumab (antibody) had a Fold WT of 1.38 fold.
On the same count and under the same terms, for E283H alemtuzumab (antibody) the value was 2.31 fold.
For V284E alemtuzumab (antibody), the Fold WT stood at 1.51 fold.
